One protein from patent publication US20080274096 can be followed below.

Data set [1] has as its target amyloid β peptide1-40 in guinea pig plasma, Q60495.
For data set [2], the target named is Amyloid β1-40 peptide (Bachem).
Data set [3] concerns the target amyloid β peptide1-42 in guinea pig plasma, Q60495.

“Also recorded” adds a separate entry of the source.

B1: Recombinant human Neprilysin (R&D Systems) (protein)
chain: YDDGICKSSDCIKSAARLIQNMDATTEPCTDFFKYACGGWLKRNVIPETSSRYGNFDILRDELEVVLKDVLQEPKTEDIVAVQKAKALYRSCINESAIDSRGGEPLLKLLPDIYGWPVATENWEQKYGASWTAEKAIAQLNSKYGKKVLINLFVGTDDKNSVNHVIHIDQPRLGLPSRDYYECTGIYKEACTAYVDFMISVARLIRQEERLPIDENQLALEMNKVMELEKEIANATAKPEDRNDPMLLYNKMTLAQIQNNFSLEINGKPFSWLNFTNEIMSTVNISITNEEDVVVYAPEYLTKLKPILTKYSARDLQNLMSWRFIMDLVSSLSRTYKESRNAFRKALYGTTSETATWRRCANYVNGNMENAVGRLYVEAAFAGESKHVVEDLIAQIREVFIQTLDDLTWMDAETKKRAEEKALAIKERIGYPDDIVSNDNKLNNEYLELNYKEDEYFENIIQNLKFSQSKQLKKLREKVDKDEWISGAAVVNAFYSSGRNQIVFPAGILQPPFFSAQQSNSLNYGGIGMVIGHEITHGFDDNGRNFNKDGDLVDWWTQQSASNFKEQSQCMVYQYGNFSWDLAGGQHLNGINTLGENIADNGGLGQAYRAYQNYIKKNGEEKLLPGLDLNHKQLFFLNFAQVWCGTYRPEYAVNSIKTDVHSPGNFRIIGTLQNSAEFSEAFHCRKNSYMNPEKKCRVW
Consider B1, for which, in data set [1], the “degradation of Aβ1-40 in guinea pig plasma (ELISA)” value was “Neprilysin degrades Aβ1-40 and Aβ1-42 in a time-dependent manner; also recorded: Neprilysin degrades Aβ1-40 in a dose dependent manner”. Besides, in data set [2], the “Amyloid β1-40 peptide degradation (percentage of peptide left, electrochemiluminescence immunoassay)” value was “degraded 88% of Amyloid β1-40 peptide (1 nM) after 3 hours incubation at 37 °C”. Besides, the “degradation of Aβ1-42 in guinea pig plasma (ELISA)” value in data set [3] is “Neprilysin degrades Aβ1-40 and Aβ1-42 in a time-dependent manner”.
